Experimental data published in article PMC3036992.

Biological target: T1, RB69 DNA polymerase (RB69 pol) (Bacteriophage RB69, UniProt Q38087 1-903, D222A;D327A)
T1 sequence: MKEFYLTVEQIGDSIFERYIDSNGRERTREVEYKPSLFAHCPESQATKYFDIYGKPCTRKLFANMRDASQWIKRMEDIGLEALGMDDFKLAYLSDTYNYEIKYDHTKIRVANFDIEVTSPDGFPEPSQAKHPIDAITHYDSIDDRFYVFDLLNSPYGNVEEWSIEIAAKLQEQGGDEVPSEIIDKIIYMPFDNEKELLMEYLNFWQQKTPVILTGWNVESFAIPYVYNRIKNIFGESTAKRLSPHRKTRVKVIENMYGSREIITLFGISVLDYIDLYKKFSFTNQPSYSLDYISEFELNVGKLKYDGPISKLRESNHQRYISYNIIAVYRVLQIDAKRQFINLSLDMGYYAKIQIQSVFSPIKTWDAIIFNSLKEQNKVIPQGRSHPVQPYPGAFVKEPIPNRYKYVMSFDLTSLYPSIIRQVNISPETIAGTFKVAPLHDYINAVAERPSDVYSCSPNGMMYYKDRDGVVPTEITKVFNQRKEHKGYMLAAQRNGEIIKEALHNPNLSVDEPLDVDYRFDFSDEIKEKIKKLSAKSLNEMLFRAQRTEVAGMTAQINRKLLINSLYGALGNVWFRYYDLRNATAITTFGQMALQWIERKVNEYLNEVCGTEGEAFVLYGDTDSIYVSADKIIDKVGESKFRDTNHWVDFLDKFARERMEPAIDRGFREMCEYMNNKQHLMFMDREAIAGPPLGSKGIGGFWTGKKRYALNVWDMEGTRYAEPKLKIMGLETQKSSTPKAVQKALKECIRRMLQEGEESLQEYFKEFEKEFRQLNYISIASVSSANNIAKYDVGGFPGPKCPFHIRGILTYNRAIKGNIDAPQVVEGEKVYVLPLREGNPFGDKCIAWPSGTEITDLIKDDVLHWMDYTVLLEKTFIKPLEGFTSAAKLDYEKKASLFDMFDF
Test: X-ray crystallography

B1: P/T cocrystallization duplex (18-mer template/13-mer ddC primer) (dsDNA)
DNA 1: TCAGGTAAGCAGTCCGCG
DNA 2: GCGGACTGCTTAC
modifications: primer 3' terminus dideoxy (ddC)
binding result: binds
